For assay [1], the target named is T1, IL-18 receptor (IL-18Rα/IL-18Rβ) overexpressed on HEK-Blue IL-18 cells (Homo sapiens (Human), UniProt Q13478 19-541; O95256 20-599).
T1 sequence 1: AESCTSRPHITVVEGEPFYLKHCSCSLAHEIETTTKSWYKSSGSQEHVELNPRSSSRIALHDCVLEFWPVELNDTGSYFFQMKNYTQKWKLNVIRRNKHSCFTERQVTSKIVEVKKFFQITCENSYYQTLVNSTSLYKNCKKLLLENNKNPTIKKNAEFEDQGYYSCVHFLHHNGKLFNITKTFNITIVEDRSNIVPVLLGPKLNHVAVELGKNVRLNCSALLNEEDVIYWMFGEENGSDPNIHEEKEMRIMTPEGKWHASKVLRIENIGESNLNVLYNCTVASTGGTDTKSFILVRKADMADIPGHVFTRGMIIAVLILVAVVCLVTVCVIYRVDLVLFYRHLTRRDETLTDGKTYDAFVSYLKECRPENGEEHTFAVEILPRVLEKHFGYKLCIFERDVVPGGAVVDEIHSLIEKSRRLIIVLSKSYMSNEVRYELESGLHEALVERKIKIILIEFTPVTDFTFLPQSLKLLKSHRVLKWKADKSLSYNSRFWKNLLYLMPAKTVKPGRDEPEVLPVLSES
T1 sequence 2: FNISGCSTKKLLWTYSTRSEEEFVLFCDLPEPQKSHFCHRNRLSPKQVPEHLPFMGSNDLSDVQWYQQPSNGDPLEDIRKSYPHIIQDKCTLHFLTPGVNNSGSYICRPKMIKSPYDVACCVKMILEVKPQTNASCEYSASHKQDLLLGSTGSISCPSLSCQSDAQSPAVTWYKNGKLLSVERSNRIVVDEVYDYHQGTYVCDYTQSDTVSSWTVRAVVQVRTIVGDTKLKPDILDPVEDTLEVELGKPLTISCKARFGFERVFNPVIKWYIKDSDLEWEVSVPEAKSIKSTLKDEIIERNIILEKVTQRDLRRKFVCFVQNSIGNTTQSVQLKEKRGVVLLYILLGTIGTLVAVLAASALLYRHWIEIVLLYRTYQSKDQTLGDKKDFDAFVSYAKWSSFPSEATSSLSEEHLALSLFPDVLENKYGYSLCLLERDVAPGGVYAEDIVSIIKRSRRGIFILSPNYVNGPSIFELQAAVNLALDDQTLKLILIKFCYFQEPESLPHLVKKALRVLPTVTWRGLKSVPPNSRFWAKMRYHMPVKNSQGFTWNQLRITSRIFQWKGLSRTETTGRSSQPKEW
Briefly: cell-based or functional assay.

The target of assay [2] is T2, IL-18 receptor (IL-18Rα/IL-18Rβ) on human PBMCs (human, UniProt Q13478 19-541; O95256 20-599).
T2 sequence 1: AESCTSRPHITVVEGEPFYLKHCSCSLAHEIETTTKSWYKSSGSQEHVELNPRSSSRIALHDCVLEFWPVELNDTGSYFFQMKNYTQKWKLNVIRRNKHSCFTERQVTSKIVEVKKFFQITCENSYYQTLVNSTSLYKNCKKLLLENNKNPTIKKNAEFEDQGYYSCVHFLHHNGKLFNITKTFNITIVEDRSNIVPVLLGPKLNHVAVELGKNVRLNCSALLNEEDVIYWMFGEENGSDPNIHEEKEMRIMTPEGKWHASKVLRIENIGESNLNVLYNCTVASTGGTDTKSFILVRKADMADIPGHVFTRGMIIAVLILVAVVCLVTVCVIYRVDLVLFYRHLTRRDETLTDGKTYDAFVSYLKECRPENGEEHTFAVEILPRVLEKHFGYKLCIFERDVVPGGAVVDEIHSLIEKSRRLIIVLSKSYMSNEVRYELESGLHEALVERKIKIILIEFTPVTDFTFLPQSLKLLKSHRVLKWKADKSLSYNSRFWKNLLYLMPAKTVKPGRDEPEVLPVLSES
T2 sequence 2: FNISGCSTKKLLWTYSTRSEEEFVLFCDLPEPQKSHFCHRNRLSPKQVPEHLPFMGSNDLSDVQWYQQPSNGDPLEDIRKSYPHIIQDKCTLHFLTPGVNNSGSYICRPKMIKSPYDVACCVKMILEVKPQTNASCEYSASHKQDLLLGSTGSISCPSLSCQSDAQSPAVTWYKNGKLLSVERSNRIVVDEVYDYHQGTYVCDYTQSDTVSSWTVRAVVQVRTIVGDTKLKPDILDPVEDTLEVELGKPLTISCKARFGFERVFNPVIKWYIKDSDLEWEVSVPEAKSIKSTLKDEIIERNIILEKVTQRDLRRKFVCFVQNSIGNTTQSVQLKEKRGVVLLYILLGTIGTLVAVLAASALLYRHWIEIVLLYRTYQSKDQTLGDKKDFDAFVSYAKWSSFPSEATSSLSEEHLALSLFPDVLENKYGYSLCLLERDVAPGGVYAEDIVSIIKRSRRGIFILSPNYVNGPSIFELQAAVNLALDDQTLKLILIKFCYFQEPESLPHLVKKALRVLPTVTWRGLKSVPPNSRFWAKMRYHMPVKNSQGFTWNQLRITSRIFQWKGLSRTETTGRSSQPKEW
As to the kind of experiment: cell-based or functional assay.

Another assay deals with T3, human IL-18Rβ (human, UniProt O95256 20-356, limits assumed).
T3 construct: Monomeric antigen injected in SPR; also called IL-18R beta; IL-18Rb
T3 sequence: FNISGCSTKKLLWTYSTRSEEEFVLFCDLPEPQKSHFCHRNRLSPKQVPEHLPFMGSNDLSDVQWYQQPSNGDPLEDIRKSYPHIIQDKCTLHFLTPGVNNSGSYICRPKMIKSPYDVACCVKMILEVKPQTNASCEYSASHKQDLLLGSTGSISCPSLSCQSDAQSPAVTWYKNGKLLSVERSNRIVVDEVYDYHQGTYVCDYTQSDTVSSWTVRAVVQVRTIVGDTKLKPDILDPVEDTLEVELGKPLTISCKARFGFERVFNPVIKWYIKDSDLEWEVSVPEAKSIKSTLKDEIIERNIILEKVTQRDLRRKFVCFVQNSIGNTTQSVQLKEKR
As to the kind of experiment: SPR (Carterra LSA), antibody captured on anti-human IgG-Fc, monomeric antigen as analyte, 25 C. On the procedure: (§1) SPR experiments were performed using Carterra LSA equipped with an HC30M chip (Carterra-Bio). Binding assays were carried out at 25° C. with HBSTE (10 mM HEPES ph7.4, 150 mM NaCl, 3 mM EDTA, 0.05% Tween-20) with 0.5 g/L BSA. A density of anti-human IgG-Fc capture lawn was established on an HC30M chip using amine coupling. […] Coupling of goat anti-human IgG (H+L) multi-species SP ads-UNLB (Southern Biotech, 2087-01) with standard immobilization was done for 15 minutes in 10 mM sodium acetate pH 4.5 and quenched using 1M ethanolamine HCl PH8.5. The anti-human IgG-Fc capture surface was then used to capture a panel of antibodies at 20 μg/mL. Monomeric antigen for human IL-18Rα, human IL-18Rβ, cynomolgus IL-18Rα, or rhesus IL-18Rβ targeted by the antibodies was injected over the captured antibody array at 6 concentrations in 4-fold dilution series starting at 500 nM. Binding data was referenced and blanked from a buffer injected, then globally fit to a 1:1 Langmuir binding model for estimation of ka, kd, and KD using Carterra Kinetics Software.

The target in a further assay is T4, human IL-18Rα (human, UniProt Q13478 19-329, limits assumed).
T4 construct: Monomeric antigen injected in SPR; also called huIL18Ra; IL-18R alpha
T4 sequence: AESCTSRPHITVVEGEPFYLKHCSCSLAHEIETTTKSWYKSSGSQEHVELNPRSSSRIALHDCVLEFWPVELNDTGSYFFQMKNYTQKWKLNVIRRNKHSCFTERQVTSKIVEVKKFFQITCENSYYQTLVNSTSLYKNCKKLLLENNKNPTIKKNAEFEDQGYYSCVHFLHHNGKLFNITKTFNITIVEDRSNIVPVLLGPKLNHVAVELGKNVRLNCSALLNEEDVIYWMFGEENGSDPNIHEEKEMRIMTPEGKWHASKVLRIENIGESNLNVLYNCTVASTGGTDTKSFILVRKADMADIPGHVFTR
The assay is described as above. On the procedure:
as §1

The target of another assay is T5, rhesus IL-18Rβ (rhesus, UniProt F7HHC1 20-356).
T5 construct: also called non-human primate IL-18Rβ
T5 sequence: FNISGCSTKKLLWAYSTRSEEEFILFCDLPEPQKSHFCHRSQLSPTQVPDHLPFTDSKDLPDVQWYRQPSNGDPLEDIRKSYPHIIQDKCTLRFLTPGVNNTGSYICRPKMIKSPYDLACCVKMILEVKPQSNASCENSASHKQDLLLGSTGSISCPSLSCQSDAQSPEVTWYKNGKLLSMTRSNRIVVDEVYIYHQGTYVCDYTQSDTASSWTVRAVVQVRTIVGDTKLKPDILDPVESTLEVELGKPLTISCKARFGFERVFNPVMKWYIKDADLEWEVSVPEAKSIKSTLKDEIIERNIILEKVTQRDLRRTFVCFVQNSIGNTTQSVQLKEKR
The assay is described as above. On the procedure: as §1

A further assay concerns the target T6, cynomolgus IL-18Rα (cynomolgus, UniProt A0A2K5V3J9 19-328).
T6 construct: also called Cyno IL-18Rα; non-human primate IL-18Rα
T6 sequence: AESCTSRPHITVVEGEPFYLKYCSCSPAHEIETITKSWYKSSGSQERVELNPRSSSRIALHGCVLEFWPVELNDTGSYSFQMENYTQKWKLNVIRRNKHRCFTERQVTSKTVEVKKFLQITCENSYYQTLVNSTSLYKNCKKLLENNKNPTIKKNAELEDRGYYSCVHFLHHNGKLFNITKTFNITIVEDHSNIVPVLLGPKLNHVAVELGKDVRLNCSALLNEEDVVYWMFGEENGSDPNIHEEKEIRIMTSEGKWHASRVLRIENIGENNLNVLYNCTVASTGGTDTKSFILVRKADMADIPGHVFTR
The assay is described as above. The method, then: as §1

B1: DGL346 (bispecific antibody)
heavy 1: EVQLVESGGGLIQPGGSLRLSCAASGSISSRDTMGWYRQAPGKGREMVSVISSSGNTNYADSVLGRFTISRDNAKNTVYLQMNALRAEDTAVYKCYAHRTYGVDYWGQGTLVTVSSGGGSQVQLVESGGGLVQPGGSLRLSCAASGRTFSSYTMGWFRQAPGKGREFVSAISWSAGRTYYADSVKGRFTISRDNAKNTVYLQMNALRAEDTAVYYCAAEEAPDWAPIDCSGYGCLSLYDYWGQGTLVTVSDKTHTCPPCPAPEAAGAPSVFLFPPKPKDTLYITREPEVTCVVVDVSHEDPEVKFNWYVDGVEVHNAKTKPREEQYNSTYRVVSVLTVLHQDWLNGKEYKCKVSNKALPAPIEKTISKAKGQPREPQVCTLPPSRDELTKNQVSLSCAVKGFYPSDIAVEWESNGQPENNYKTTPPVLDSDGSFFLVSKLTVDKSRWQQGNVFSCSVMHEALHNHYTQKSLSLSPG
heavy 2: DKTHTCPPCPAPEAAGAPSVFLFPPKPKDTLYITREPEVTCVVVDVSHEDPEVKFNWYVDGVEVHNAKTKPREEQYNSTYRVVSVLTVLHQDWLNGKEYKCKVSNKALPAPIEKTISKAKGQPREPQVYTLPPCRDELTKNQVSLWCLVKGFYPSDIAVEWESNGQPENNYKTTPPVLDSDGSFFLYSKLTVDKSRWQQGNVFSCSVMHEALHNHYTQKSLSLSPG
notes: humanized
Consider B1, for which, in assay [1], the “HEK-Blue IL-18: Abs 405 at 100 nM” value is 1.34 Abs and the “HEK-Blue IL-18: Fold over Background” value worked out at 7.2 fold. Besides, in assay [2], the “PBMC: calculated maximum induction of IFNγ after 24 hours, donor 1” value is 16000; the “PBMC: calculated maximum induction of IFNγ after 24 hours, donor 2” value is 1700; the “PBMC: calculated maximum induction of IFNγ after 24 hours, donor 3” value is 22000; the “PBMC: calculated maximum induction of IFNγ after 24 hours, donor 4” value was 17000. In assay [2], the “PBMC: calculated maximum induction of IFNγ after 24 hours, donor 5” value was 15000 and the “PBMC: calculated maximum induction of IFNγ after 24 hours, donor 6” value is 3000. The molecule further gave a Kd with human IL-18Rβ of 2.2 nM. The Kd with human IL-18Rα was determined as 60 nM. This molecule also showed a dissociation constant (Kd) in the assay with rhesus IL-18Rβ of 10 nM. The same molecule showed a Kd in the assay with cynomolgus IL-18Rα of 900 nM.

The values are drawn from patent US20240209100A1 (DIAGONAL THERAPEUTICS, published 2024).
